Experimental data published in article doi:10.1101/2022.05.28.493848.

Target: Porcine skeletal muscle α-actin, filamentous (porcine) (UniProt P68137)

With “MyoB-MLC-B CaMLD complex, purified (from UniProt Q8I465 1-801; Q8III1 1-652)” the coupling efficiency (kcat/Kapp) of the actin-activated ATPase was 9.
